Test results taken from publication PMC12279188.

Target: KSHV gB653-mut ectodomain (Kaposi's sarcoma-associated herpesvirus (KSHV), strain GK18) (UniProt F5HB81)
Experiment: cryo-EM structure

**Q.** Which stoichiometry N does the source give for “KSHV gB653-mut ectodomain (from UniProt F5HB81 27-653) (domain or fragment)” here?
**A.** The stoichiometry N was 3.
